The chains are these.
B1: glmS ribozyme (parent)
chain: AUAAAAGCGCCAGAACUACAGAAAUGUAGUUGACGAGGAGGAGGUUUAUCGAAUUUUCGGCGGAUGCCUCCAAA

± gives the standard error. Fewer inactive variants are shown than the library holds.

Variants of B1 are the subject of this series. Nature of the series: self-cleavage kobs at 10000 uM GlcN6P; higher = faster cleavage; RNA array. The conditions noted are these: with glucosamine-6-phosphate. The method, boiled down:
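Glucosamine-6-phosphate, from 40 μM to 10 mM in HEPES/KCl/Mg(OAc)2 buffer, was flowed over sequenced MiSeq chips carrying barcoded ribozyme variants transcribed in situ by E. coli RNA polymerase. A hybridised Cy3 probe tracked the variants at 37 °C as tiles were imaged over ~14 h. kobs, kcat and KM were obtained by fitting normalised per-tile medians to exponential decays and then applying weighted Michaelis–Menten fits across concentrations.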
For the variant C8G A14C C68G, the “self-cleavage kobs at 10000 uM GlcN6P” value is under 1e-05 s⁻¹.

With G32C A53G C67G, the “self-cleavage kobs at 10000 uM GlcN6P” value was 3.72e-05 ± 1.3e-05 s⁻¹. The result for G41C U57G reads under 1e-05 s⁻¹; that for A36C A48U G63A, under 1e-05 s⁻¹.

With A14U G37C G59C C67U, the “self-cleavage kobs at 10000 uM GlcN6P” value was under 1e-05 s⁻¹. For the variant G29A C34G C67U, the “self-cleavage kobs at 10000 uM GlcN6P” value was under 1e-05 s⁻¹.

G38U U56C: the “self-cleavage kobs at 10000 uM GlcN6P” value was under 1e-05 s⁻¹. The result for G43U G44U U65G reads under 1e-05 s⁻¹; that for C8A A12G U31G A39U, under 1e-05 s⁻¹; that for U2G U47C, 0.00421 ± 0.0012 s⁻¹. For the variant G29A C67U C70U, the “self-cleavage kobs at 10000 uM GlcN6P” value was determined as 6.18e-05 ± 1.1e-05 s⁻¹. Under U31A G51U C68A stands under 1e-05 s⁻¹; under G29U G38A A42G U47G C71U, under 1e-05 s⁻¹. Under A12G A14C C50G C71A stands 0.000133 ± 3.2e-05 s⁻¹; under G37C U54A, 4.2e-05 ± 1e-05 s⁻¹. The result for A15C A33U U47C U57G C68U U69C reads under 1e-05 s⁻¹; that for G29C C34G G40C C70A, under 1e-05 s⁻¹. Consider G13U A39G C68U, for which the “self-cleavage kobs at 10000 uM GlcN6P” value was 0.000334 ± 8.3e-05 s⁻¹.

Consider A12C G37A A39C, for which the “self-cleavage kobs at 10000 uM GlcN6P” value is 0.000849 ± 0.00015 s⁻¹. The result for U45C U65G C70U reads 0.000225 ± 6.1e-05 s⁻¹; that for C58U G63C C70U, under 1e-05 s⁻¹.

Regarding G32A U47G A52G C61G C71G, the “self-cleavage kobs at 10000 uM GlcN6P” value stood at 6.89e-05 ± 2.1e-05 s⁻¹. With U30G U55G C70G, the “self-cleavage kobs at 10000 uM GlcN6P” value stood at 4.53e-05 ± 1.9e-05 s⁻¹. For the variant C11U U45A, the “self-cleavage kobs at 10000 uM GlcN6P” value was found to be 0.002 ± 0.00051 s⁻¹. Under A48G C58A stands 4.59e-05 ± 1.1e-05 s⁻¹; under A15U C50A G51A A53G, under 1e-05 s⁻¹. The result for C16A G51U U65A reads under 1e-05 s⁻¹; that for C34U G38U G40U, under 1e-05 s⁻¹; that for C34U U45A C61U, under 1e-05 s⁻¹.

For the variant C8A A36G U57C, the “self-cleavage kobs at 10000 uM GlcN6P” value is under 1e-05 s⁻¹. For U45G U46C U54G, the “self-cleavage kobs at 10000 uM GlcN6P” value is 0.00762 ± 0.0023 s⁻¹. For U31A A36U U47G C70G, the “self-cleavage kobs at 10000 uM GlcN6P” value is 5.95e-05 ± 1.5e-05 s⁻¹. Under A33G G35U A39G A53U G62C stands under 1e-05 s⁻¹.

Take G7A U30A A39C A48C: the “self-cleavage kobs at 10000 uM GlcN6P” value is under 1e-05 s⁻¹. A52U G66C: the “self-cleavage kobs at 10000 uM GlcN6P” value turned out to be 4.08e-05 ± 1.2e-05 s⁻¹. The result for A36C A52U C58U G63A reads under 1e-05 s⁻¹. Under G29A A64G C67G stands 5.14e-05 ± 2e-05 s⁻¹; under A6C C50A U55G, under 1e-05 s⁻¹.

For A6U C10U G44A C50U, the “self-cleavage kobs at 10000 uM GlcN6P” value is under 1e-05 s⁻¹. Under A6U G29U G62C stands under 1e-05 s⁻¹. Under G32C A36U G37A C61A C67U stands 9.54e-05 ± 1.4e-05 s⁻¹; under C8A A15G A39C C70G, under 1e-05 s⁻¹; under A14C U47G U54C, 0.00121 ± 0.00018 s⁻¹. Take A14C G41C: the “self-cleavage kobs at 10000 uM GlcN6P” value was 3.51e-05 ± 1.1e-05 s⁻¹.

For A14C A42C U46G A52G, the “self-cleavage kobs at 10000 uM GlcN6P” value was under 1e-05 s⁻¹. As for A33C G38U C68U, the “self-cleavage kobs at 10000 uM GlcN6P” value was under 1e-05 s⁻¹. Under A6U A12U C16U A36G stands under 1e-05 s⁻¹. Under C11A A42G C67U stands 4.66e-05 ± 1.8e-05 s⁻¹. As for A12U G13C A52U G60A A64C, the “self-cleavage kobs at 10000 uM GlcN6P” value is under 1e-05 s⁻¹. The result for A6C G32U C50A reads under 1e-05 s⁻¹. Turning to G7U G9U G44A C68G, the “self-cleavage kobs at 10000 uM GlcN6P” value is under 1e-05 s⁻¹.

With G13A G35U G37C, the “self-cleavage kobs at 10000 uM GlcN6P” value is under 1e-05 s⁻¹.

Regarding C10U U31C U57G, the “self-cleavage kobs at 10000 uM GlcN6P” value is under 1e-05 s⁻¹.

With A6C C8A A36C, the “self-cleavage kobs at 10000 uM GlcN6P” value is under 1e-05 s⁻¹. The result for C8G G43C C50U reads under 1e-05 s⁻¹; that for A6G U45A U57G, under 1e-05 s⁻¹; that for G43A A52C C58A G66U C67G U69G, under 1e-05 s⁻¹. Under C34A G35C A48U stands under 1e-05 s⁻¹. The result for A42U A64C C67U reads under 1e-05 s⁻¹; that for A12U C16G G40U, 0.000769 ± 0.00016 s⁻¹; that for U55G G59U, 4.4e-05 ± 1.1e-05 s⁻¹. As to A6C C10G U31A G43U C70U, the “self-cleavage kobs at 10000 uM GlcN6P” value is under 1e-05 s⁻¹. Under G9C C11U C61G stands 0.000219 ± 4.5e-05 s⁻¹.

Source of the values: the supplement of paper PMC7125110.
